The values below come from patent US20160145654A1.

Bounds are passed on as bounds.

Test [1] addresses human IgG from pooled human serum (Sigma-Aldrich). The test can be described thus: ELISA of heated granules, human serum, anti-IgG-HRP.
Test [2] shares this target. Briefly: ELISA, granules coated on wells, pooled human serum, polyclonal anti-IgG-HRP, OPD.
Test [3] has as its target labeled mouse IgG2b monoclonal antibody conjugated to phycoerythrin. The test can be described thus: FACS of particles with 10 µg/mL PE labeled mouse IgG2b mAb.
The target is the same in test [4]. The test can be described thus: FACS of particles with 10 µg/ml PE labeled mouse IgG2b mAb.

On to “ZZ domain-PHA synthase fusion without signal peptide, on PHA granules (from UniProt P23608 1-589)”, for which, in test [1], the binding capacity after heating for 15 min at 60° C. was found to be 60%. Besides, in test [2], the fold increase in absorption at 490 nm against wild type PHA granules was more than 2 fold. Moreover, the fold increased binding affinity against particles from pBHR69-ZZ(-)phaC (about 150 nm) in test [3] came out at 10 fold. For the same substance, the fold more IgG bound per particle against particles from pBHR69-ZZ(-)phaC in test [4] was more than 10 fold.
